# Results from US20100150860A1 (LUNAN PHARMACEUTICAL GROUP, published 2010).
# Molecular target: thrombin (of the antithrombin activity assay, species not stated)
# Experiment: cell-based or functional assay
row,Binder,antithrombin activity (ATU/mg)
1,"TNHH-G15/n3, NIF-(Gly)15-FPRP-(GSGG)3-hirugen (other) MNEHNLRCPQNGTEMPGFNDSIRLQFLAMHNGYRSKLALGHISITEESESDDDDDFGFLPDFAPRASKMRYLEYDCEAEKSAYMSARNCSDSSSPPEGYDENKYIFENSNNISEAALKAMISWAKEAFNLNKTKEGEGVLYRSNHDISNFANLAWDAREKFGCAVVNCPLGEIDDETNHDGETYATTIHVVCHYPKINKTEGQPIYKVGTPCDDCSEYTKKADNTTSADPVCIPDDGVCFIGSKADYDSKEFYRFRELGGGGGGGGGGGGGGGFPRPGSGGGSGGGSGGNGDFEEIPEEYL",1200
2,NGDFEEIPEEYL (not fully specified) [hirugen (printed 'Hirogen')],1000
3,"recombinant chimeric protein of neutrophil inhibitory factor and hirugen (TNHH), Met-NIF-GGGGG-FPRPGSGG-Hirugen (other) MNEHNLRCPQNGTEMPGFNDSIRLQFLAMHNGYRSKLALGHISITEESESDDDDDFGFLPDFAPRASKMRYLEYDCEAEKSAYMSARNCSDSSSPPEGYDENKYIFENSNNISEAALKAMISWAKEAFNLNKTKEGEGVLYRSNHDISNFANLAWDAREKFGCAVVNCPLGEIDDETNHDGETYATTIHVVCHYPKINKTEGQPIYKVGTPCDDCSEYTKKADNTTSADPVCIPDDGVCFIGSKADYDSKEFYRFRELGGGGGFPRPGSGGNGDFEEIPEEYL",1200
4,"NIF-hirudin hybrid (NHH), NIF-(Gly)5-hirugen (other) NEHNLRCPQNGTEMPGFNDSIRLQFLAMHNGYRSKLALGHISITEESESDDDDDFGFLPDFAPRASKMRYLEYDCEAEKSAYMSARNCSDSSSPPEGYDENKYIFENSNNISEAALKAMISWAKEAFNLNKTKEGEGVLYRSNHDISNFANLAWDAREKFGCAVVNCPLGEIDDETNHDGETYATTIHVVCHYPKINKTEGQPIYKVGTPCDDCSEYTKKADNTTSADPVCIPDDGVCFIGSKADYDSKEFYRFRELGGGGGNGDFEEIPEEYL",800
